Results on 5 molecules are retold here after article PMC9200632, “Development of spirulina for the manufacture and oral delivery of protein therapeutics” (Nature Biotechnology, 2022).

The target of assay [1] is T1, MBP–FlaA (C. jejuni flagellin FlaA, amino acids 177–482) (Campylobacter jejuni, flagellin A …, biotinylated (EZ-Link NGS-PEG4-Biotin kit) in the BLI).
T1 construct: The biotinylated form was used for BLI; The ELISA methods name the coating protein only as recombinant FlaA; also called recombinant FlaA; recombinant C. jejuni flagellin; source: E. coli BL-21(DE3), purified (Amylose Resin); not shown: MBP, N-terminal, kept
T1 chain: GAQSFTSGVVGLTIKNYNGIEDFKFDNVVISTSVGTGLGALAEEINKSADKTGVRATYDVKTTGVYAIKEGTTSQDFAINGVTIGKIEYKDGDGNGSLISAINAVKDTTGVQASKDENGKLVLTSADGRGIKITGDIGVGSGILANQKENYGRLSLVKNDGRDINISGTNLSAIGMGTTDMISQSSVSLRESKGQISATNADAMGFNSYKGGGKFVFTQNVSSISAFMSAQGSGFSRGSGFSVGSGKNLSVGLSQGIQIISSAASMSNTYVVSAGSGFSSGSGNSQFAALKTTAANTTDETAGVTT
The experiment in a line: BLI; Octet Red96e; biotinylated MBP–FlaA loaded at 100 nM on streptavidin biosensors; purified aa682 from 1 μM to 10 nM in PBS with 1% BSA and 0.05% Tween-20; association 20 s, dissociation 140 s; global fit, 1:1 model. Conditions: both partners purified. For orientation: BLI is a label-free optical method that tracks binding on a fibre tip over time.

In assay [2] the target is T2, RBD antigen (SARS-CoV-2 receptor-binding domain) (SARS-CoV-2, variant  …, UniProt P0DTC2).
T2 construct: source: provided by R. Strong (Fred Hutchinson Cancer Institute)
The assay is described as follows: ELISA. A general note: An ELISA detects its analyte on a solid surface through an enzyme-linked reagent.

B1: aa682 (VHH)
VHH: QVQLVESGGGLVQAGGSLRVSCTASVSTFSINALGWYRQAPGKARELVAAIGSDGTVYYTDSVKGRFTISRDNAKNTVSLQMSSLKPEDTAVYYCNAAGKRIGSDGSIWFAVASFGSWGQGTQVTVSS
notes: N-terminal methionine removed (intact mass); Monovalent VHH-MBP fusion, predicted MW 54.8 kDa
As to B1, the dissociation constant (Kd) (in general, the concentration at which binding is half-saturated) in assay [1] is 53 nM.

B2: PP622, monomeric RBD-binding VHH (VHH-72), E. coli-expressed and purified (VHH)
VHH: QVQLQESGGGLVQAGGSLRLSCAASGRTFSEYAMGWFRQAPGKEREFVATISWSGGSTYYTRSVKGRFTISRDNAKNTVYLQMNSLKPDDTAVYYCAAAGLGTVVSEWDYDYDYWGQGTQVTVSS
notes: also called monomeric VHH; source: E. coli, purified (IMAC)
B2: in assay [2] (both partners purified), the EC50 (commonly the concentration giving half of the maximal effect) came out at 18.3 nM.

B3: monomeric RBD-binding VHH (VHH-72) in extract of spirulina strain SP1464 (VHH)
VHH: QVQLQESGGGLVQAGGSLRLSCAASGRTFSEYAMGWFRQAPGKEREFVATISWSGGSTYYTRSVKGRFTISRDNAKNTVYLQMNSLKPDDTAVYYCAAAGLGTVVSEWDYDYDYWGQGTQVTVSS
notes: also called monomeric VHH, extract; source: spirulina strain SP1464, in extract
With B3, in assay [2] (one partner purified), the EC50 worked out at 52.3 nM.

B4: dimeric RBD-binding VHH (VHH-72 on the 5HVZ scaffold) in extract of spirulina strain SP1477 (VHH)
VHH: QVQLQESGGGLVQAGGSLRLSCAASGRTFSEYAMGWFRQAPGKEREFVATISWSGGSTYYTRSVKGRFTISRDNAKNTVYLQMNSLKPDDTAVYYCAAAGLGTVVSEWDYDYDYWGQGTQVTVSS
notes: as the dimerization motif of m5, named only by its PDB entry 5HVZ; also called dimeric VHH, extracted form; source: spirulina strain SP1477, in extract
In assay [2] (one partner purified), B4 returned a concentration giving a half-maximal response (EC50) of 1.29 nM.

B5: PP661, dimeric RBD-binding VHH (VHH-72 on the 5HVZ scaffold), E. coli-expressed and purified (VHH)
VHH: QVQLQESGGGLVQAGGSLRLSCAASGRTFSEYAMGWFRQAPGKEREFVATISWSGGSTYYTRSVKGRFTISRDNAKNTVYLQMNSLKPDDTAVYYCAAAGLGTVVSEWDYDYDYWGQGTQVTVSS
notes: also called dimeric VHH; source: E. coli, purified (IMAC)
Take B5: the response in assay [2] (both partners purified) was half-maximal at 0.32 nM (EC50).
